Measurements as given in US20090239215A1.

Biological target: MBP-MT2 fusion protein (maltose binding protein fused to two copies of metallothionein), without gold (mouse) (UniProt P02802)
Test: STEM mass measurement (PCMass25); expected 260 kDa for the antibody with two MBP-MT2

UniProt P02802, sequence (P02802 other isoform, or with tags, fused parts or gaps): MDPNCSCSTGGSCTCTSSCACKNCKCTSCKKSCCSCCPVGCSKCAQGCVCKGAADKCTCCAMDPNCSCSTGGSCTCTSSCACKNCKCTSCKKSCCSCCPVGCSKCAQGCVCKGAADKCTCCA

mean STEM mass of the antibody complex particles: 205 kDa
Substance: commercially available monoclonal IgG2a MBP antibody (New England Biolabs)
